Assay results reported in article doi:10.1101/838888.

Target: superfolder GFP with strained-cyclooctyne pyrrolysine at residue 204 (sfGFP^204SCO) (Aequorea victoria) [GFP: P42212]
Test: FRET or BRET

- FRET efficiency: 86.8%
Substance: Venus with p-azido-L-phenylalanine at residue 204 (Venus^204azF) (from UniProt P42212 2-238)
